The values below come from patent CN108503708A.

Usually Kd stands for the constant that tells how readily two partners part at equilibrium. As usually defined, the koff is the rate constant with which the complex falls apart. A word on the kon: it is the rate constant with which the complex forms. In general, IC50 refers to the concentration that gives 50% inhibition.

The target of assay [1] is huCD47-D1-his (recombinant human CD47 extracellular region D1 with C-terminal His tag) (human (homo sapiens)) (UniProt Q08722). Description: SPR BIAcore, against hS2C3 as reference. A general note: Surface plasmon resonance follows binding to a sensor surface in real time, without labels.
The target of assay [2] is hCD47 mutant E35A (human (homo sapiens)) (UniProt Q08722). Description: SPR BIAcore, against natural hCD47 as reference.
Assay [3] concerns the target hCD47 mutant Q1A (human (homo sapiens)) (UniProt Q08722). Description: SPR BIAcore, against natural hCD47 as reference.
Assay [4] deals with huCD47-D1-his (recombinant human CD47 extracellular region D1 with C-terminal His tag) (human (homo sapiens)) (UniProt Q08722). Description: SPR BIAcore, by the method of Example 3 (antibody captured, huCD47-D1-his analyte).
In assay [5] the target is hCD47-mFc (human CD47 extracellular region D1 fused to mouse IgG2a Fc) (human (homo sapiens)). Description: competition ELISA by the method of Example 3 (hCD47-mFc coated, hCD172a-D1M1-His as competitor). In general terms: In an ELISA, binding on a coated surface is turned into a signal by an enzyme label.
Assay [6] has the same target. Described as above. This is another data set of the same source.

Substitutions are numbered along the chain they refer to. Like-named read-outs stand apart in the source and are kept apart here.

B1: H10C7+L26A6 (affinity-matured variant of hS2C3) (antibody, part only; not given: constant regions, V domains shown, part only)
VH: QVQLVQSGAEVKKPGASVKVSCKASGYTFTDYYMHWVRQAPGQRLEWMGWIYPGSGNTRYSQKFKDRVTMTRDTSTSTVYMELSSLRSEDTAVYYCARREEDYFDYWGQGTLVTVSS
With B1, the fold improvement of affinity over hS2C3 in assay [1] was determined as 5 fold. In addition, the fold increase of affinity against natural hCD47 in assay [2] amounted to 4 fold. The same molecule had a fold decrease of affinity against natural hCD47 in assay [3] of 100 fold. Besides, in assay [4], the Kd is 2.32 nM, the koff stood at 0.00193 s⁻¹ and the association rate constant (kon) is 833000 M⁻¹ s⁻¹. In addition, in assay [5], the half-inhibitory concentration (IC50) was found to be 4.25 nM. The IC50 in assay [6] is under 5 nM.

B2: H11E5+L26A6 (affinity-matured variant of hS2C3) (antibody, part only; not given: constant regions, V domains shown, part only)
VH: B1 VH with G54S, R59K, S61A
As for B2, in assay [4], the Kd was determined as 1.83 nM, the dissociation rate constant (koff) came to 0.0017 s⁻¹ and the kon was 930000 M⁻¹ s⁻¹. This molecule also returned a 50% inhibitory concentration (IC50) in assay [5] of 3.52 nM. The half-maximal inhibitory concentration (IC50) in assay [6] was under 5 nM.
